# Patent US20130053541A1, “METHODS FOR DISCOVERING MOLECULES THAT BIND TO PROTEINS” (LYNNTECH, INC., priority 2011, published 2013)
# Where no end group is shown, it is not given here.
# Target: T1, native human ESRRG protein (Estrogen-receptor related receptor gamma) (human, UniProt P62508 229-458, limits assumed)
# T1 construct: the screened protein is called 'native human ESRRG protein'; also called ESSRG; ERRγ
# T1 sequence (looked up): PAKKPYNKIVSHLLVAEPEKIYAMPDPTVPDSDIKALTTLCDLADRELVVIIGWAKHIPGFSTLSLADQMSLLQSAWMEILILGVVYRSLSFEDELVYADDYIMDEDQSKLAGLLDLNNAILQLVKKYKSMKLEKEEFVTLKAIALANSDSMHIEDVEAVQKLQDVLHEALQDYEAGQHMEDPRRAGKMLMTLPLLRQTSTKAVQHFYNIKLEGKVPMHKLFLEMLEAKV
# Assay: peptide microarray, Iteration 1; bound ESRRG detected with fluorescent anti-ESRRG mAb
# Procedure: (§1) Screening was carried out typically by hybridization of the protein (1 μg/mL) against the array for 1 h at 4° C.; detection of bound protein was carried out using a fluorescently labeled anti-ESRRG mAb. (Direct labeling of ESRRG and alternative detection strategies are equally valid).
# Daughter candidate ligands and their new Tier 3 and/or Tier 1 based combinations were synthesized in situ on an addressable peptide microarray and screened against native human ESRRG protein in order to determine sequences that bind to this protein. Bound protein was detected by a fluorescently labeled anti-ESRRG mAb. […] Excess (100×) competing biological matrices (human serum, HSA/BSA or bacterial protein extract) were used as backgrounds to select for specific ligands to the protein. Other competing proteins can be added to background for specificity selection and directed evolution of ligands.
Sample B (Probe) Signal,log2 (Sample B/Sample A),Binder
9740 fluorescence intensity units,12,Ac-NSLLQHLL
3240 fluorescence intensity units,6.08,Ac-NSLRQHLL
1670 fluorescence intensity units,6.34,Ac-NSLRSHLL
740 fluorescence intensity units,4.97,Ac-IKQNYNNS
961 fluorescence intensity units,4.86,Ac-LHLRYSQT
1320 fluorescence intensity units,6.51,Ac-ANNSLLLH
1620 fluorescence intensity units,5.13,Ac-ANNFLLLH
1090 fluorescence intensity units,6.34,Ac-ANNILLLH
806 fluorescence intensity units,8.57,Ac-ANNIQLLH
1010 fluorescence intensity units,5.05,Ac-ANNIWLLH
1670 fluorescence intensity units,4.88,Ac-ANNLKLLH
1540 fluorescence intensity units,5.03,Ac-ANNLQLLH
1220 fluorescence intensity units,5.82,Ac-ANNLSLLH
1610 fluorescence intensity units,5.26,Ac-ANNLWLLH
1010 fluorescence intensity units,5.42,Ac-ANNSKLLH
955 fluorescence intensity units,9.9,Ac-ANNSQLLH

Sample B (Probe) Signal,log2 (Sample B/Sample A),Binder
1150 fluorescence intensity units,7.29,Ac-ANNSSLLH
1260 fluorescence intensity units,5.97,Ac-ANNSWLLH
1720 fluorescence intensity units,5.04,Ac-ANNVKLLH
2000 fluorescence intensity units,4.92,Ac-ANNVLLLH
1820 fluorescence intensity units,4.87,Ac-ANNVSLLH
863 fluorescence intensity units,6.58,Ac-NIKVHANN
1190 fluorescence intensity units,5.52,Ac-AANMLLLL
1220 fluorescence intensity units,6.16,Ac-AANMSLLL
4010 fluorescence intensity units,5.95,Ac-AANMYLLL
3440 fluorescence intensity units,6.78,Ac-AANNYLLL
2010 fluorescence intensity units,7.19,Ac-AANYILLL
3760 fluorescence intensity units,7.4,Ac-AANYLLLL
2200 fluorescence intensity units,7.22,Ac-AANYVLLL
935 fluorescence intensity units,5.63,Ac-AIRGHLMG
690 fluorescence intensity units,5.87,Ac-AIRVHLMG

# Target: T1, native human ESRRG protein …
# Assay: peptide microarray, Iteration 2; bound ESRRG detected with fluorescent anti-ESRRG mAb
# Procedure: as §1
# Iterative sequence expansion and arraying of 10 highest binding ligands to ESRRG from Iteration 1 was carried out and the new peptide sequences were synthesized on an array and screened against the protein, as described above. In this step, the central 2 amino acids (core) in peptide sequences were maintained unchanged while outlying amino acids (2, 3, 6, and 7) were permuted (using Tier 1 and Tier 3 substitutions) in a ‘cipher’ or ‘combination’ lock approach.
Sample B (Probe) Signal,log2 (Sample B/Sample A),Binder
1010 fluorescence intensity units,2.08,Ac-IFLLQQDN
2610 fluorescence intensity units,2.07,Ac-WRSYPRRA
1200 fluorescence intensity units,2.05,Ac-RLLHYGSY
441 fluorescence intensity units,2.03,Ac-HNNFSLEP
746 fluorescence intensity units,2.02,Ac-MYKLKQDN
895 fluorescence intensity units,2.01,Ac-WLLLKHGL
271 fluorescence intensity units,1.98,Ac-DRSYPRHT
794 fluorescence intensity units,1.97,Ac-YFLLQQGP
998 fluorescence intensity units,1.94,Ac-PGKGHFPI
440 fluorescence intensity units,1.93,Ac-AFNMYLDE
900 fluorescence intensity units,1.92,Ac-FVNFSLGI
1660 fluorescence intensity units,1.9,Ac-RRSYPRGR
